According to the supplement of paper PMC10126150:
± gives the standard deviation of the averaged measurements.

Tested on: ATP
Experiment: switch fluorescence ratio, 500 uM ATP over buffer (Cy3 cluster intensity, sum of 5 cycles each) (fold (ratio)); higher = stronger signal-on switching upon ATP binding; sequences stand for … in TCGTCGGCAGCGTCAGATGTGTATAAGAGACAGTTTTTTTTTTTTTTTTTTTTTTTTT…TC
Conditions: aptamer strand: ATP DNA aptamer (quencher-CACCTGGGGGAGTATTGCGGAGGAAGG + anchor), 100 nM annealed; ATP concentration: 500 uM
Procedure, shortened: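 Per cluster, summed Cy3 intensity from the target cycles was divided by that from the buffer cycles to give the fluorescence ratio, then averaged per switch-domain sequence. Clusters outside 100-1000 RFU were excluded. The Cy3-labelled switching-strand clusters, on a modified Illumina MiSeq flow-cell, were annealed to 100 nM quencher-labelled ATP aptamer and imaged in selection buffer, then after 15 min with 500 uM ATP at 22 °C, for five cycles with NaOH stripping and re-annealing between them.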
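Note: ATP exposure 15 min at 22 °C before imaging.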

Sequence	switch fluorescence ratio
TCATGGAAGG	1.01 ± 0.026
GGAAGTCCGG	1.03 ± 0.022
ATATTTGGAG	0.9981 ± 0.003
AGATGAGATA	1.005 ± 0.0037
CTGGTGAGTT	0.9789 ± 0.0012
TCGGGGTATG	0.982 ± 0.014
CTCAGGCG	1.17 ± 0.23
GGGATGGATC	0.9929 ± 0.0011
TGCTTAGACT	1.18 ± 0.27
GGCATTTTTC	0.999 ± 0.021
ATGGTAGGGT	1.01 ± 0.018
CGGGTGAATT	1.01 ± 0.071
ATGGGTTCTG	0.999 ± 0.017
TTATTTAAAG	1.018 ± 0.0024
GCATGTATAG	1.015 ± 0.0046
GATAGCTTAG	0.9935 ± 0.0071
GAGGGAAGGT	1.02 ± 0.02
TGGTTAGTTG	0.994 ± 0.013
TAAATGGAGG	0.9891 ± 0.0061
TACAGGGCTG	1.02 ± 0.057
GGGTAGATGC	1.01 ± 0.052
TTAAGTGGAA	0.997 ± 0.049
CGGGTTCGCC	0.981 ± 0.012
TTGGGGTGGC	0.965 ± 0.061
GAGGGGAAGG	0.958 ± 0.057
AGTTTTTAAA	1.027 ± 0.0039

Sequence	switch fluorescence ratio
TTTTTTTGAC	1.01 ± 0.038
TTGACAATGG	0.99 ± 0.012
GGGTGGCGGT	1.01 ± 0.021
TAAAAATTAT	1 ± 0.028
CGGGGCCGGG	0.996 ± 0.017
AGCTTAAATT	0.987 ± 0.018
GGGGTATCGC	1.002 ± 0.0095
TGAGAGTGCG	0.968 ± 0.027
ACTGATTTTT	1.015 ± 0.0036
GTCTATATGG	0.997 ± 0.032
CTCGCGAATT	1.55 ± 0.49
TGCGGGGTGC	1.02 ± 0.0028
AGAGTCGAGG	0.968 ± 0.047
ATTATCCCGG	0.99 ± 0.041
TGTAAACGGG	1.09 ± 0.12
TACAAAATGG	0.997 ± 0.012
ATTCAATCCA	0.989 ± 0.012
AGGATTTGAG	1 ± 0.013
CATTAATGGG	1.01 ± 0.019
TTTAGGGAGG	0.974 ± 0.026
CGTTGTAAAT	0.9823 ± 0.0071
GCGGTTCGAA	0.997 ± 0.084
GCTCCGATAG	5.2 ± 0.94
TCCTCATGTT	1.07 ± 0.032
ACACTTGTTG	0.963 ± 0.028
ATATACGGCA	1.19 ± 0.08

Sequence	switch fluorescence ratio
GAGCAGGGCC	0.982 ± 0.046
ACACCCTTAT	1.127 ± 0.011
GGACTCTGCG	1 ± 0.028
AGCCGTGATG	1.06 ± 0.048
GAGGAATGAG	0.9878 ± 0.005
ATGGTTAGCT	1.02 ± 0.027
GCTTCAAGTT	0.985 ± 0.027
GGGCGCAGCG	0.978 ± 0.031
AGCTGCGACG	0.992 ± 0.044
AAGTCCTGGA	1.07 ± 0.13
GTGGTAGGTT	0.981 ± 0.027
ATTAGGAAAT	1.08 ± 0.1
TTATATTTGT	0.98 ± 0.02
TAGGGGGGTC	1 ± 0.066
CCTAAAAGTT	1.01 ± 0.05
TAAATGAATT	1.05 ± 0.096
TCGTGTGGTT	0.978 ± 0.035
TTCCCACCGT	1.06 ± 0.031
AAAAAATAGT	1 ± 0.019
TTGATCGCTC	1.82 ± 1
ACTAGAGGCA	1 ± 0.024
TTAGAGCGTT	1.72 ± 1
TTGAGTTTAT	1.02 ± 0.12
GGAGTTGGGG	0.99 ± 0.02
CAGCCTTGTG	1.013 ± 0.0079
